Experimental data as given in paper PMC12331936, “Structural Insights into the Protein Mannosyltransferase from Mycobacterium tuberculosis reveal a WW-Domain-Like Protein Motif in Bacteria” (Communications Biology, 2025).

tested on: MtPMT; format: cell-based; settings: MtPMT mutant expressed in M. smegmatis ΔMsPMT; ELLA, relative to WT (100%) and No PMT (0%)

| Molecule | FasC^His mannosylation / MtPMT enzymatic activity (ConA binding) | reduction (drop) of apparent FasC mannosylation level |
| --- | --- | --- |
| D74A (protein, UniProt P9WN05 1-522, looked up, variant D74A) Polyprenol-phosphate-mannose-- …: MTARPPESCVLAKDRPEEPVVPVVSPGPLVPVADFGPLDRLRGWIVTGLITLLATVTRFLNLGSLTDAGTPIFAEKHYAPQAWQVLNNHGVEDNPGYGLVVHPPVGKQLIAIGEAIFGYNGFGWRFTGALLGVVLVALVVRIVRRISRSTLVGAIAGVLLICDGVSFVTARTALLDGFLTFFVVAAFGALIVDRDQVRERMHIALLAGRSAATVWGPRVGVRWWRFGAGVLLGLACATKWSGVYFVLFFGAMALAFDVAARRQYQVQRPWLGTVRRDVLPSGYALGLIPFAVYLATYAPWFASETAIDRHAVGQAVGRNSVVPLPDAVRSLWHYTAKAFHFHAGLTNSAGNYHPWESKPWTWPMSLRPVLYAIDQQDVAGCGAQSCVKAEMLVGTPAMWWLAVPVLAYAGWRMFVRRDWRYAVVLVGYCAGWLPWFADIDRQMYFFYAATMAPFLVMGISLVLGDILYHPGQGSERRTLGLIVVCCYVALVVTNFAWLYPVLTGLPISQQTWNLEIWLPSWR | complete lack of mannosylation |  |
| L392A (protein, UniProt P9WN05 1-522, looked up, variant L392A) Polyprenol-phosphate-mannose-- …: MTARPPESCVLAKDRPEEPVVPVVSPGPLVPVADFGPLDRLRGWIVTGLITLLATVTRFLNLGSLTDAGTPIFDEKHYAPQAWQVLNNHGVEDNPGYGLVVHPPVGKQLIAIGEAIFGYNGFGWRFTGALLGVVLVALVVRIVRRISRSTLVGAIAGVLLICDGVSFVTARTALLDGFLTFFVVAAFGALIVDRDQVRERMHIALLAGRSAATVWGPRVGVRWWRFGAGVLLGLACATKWSGVYFVLFFGAMALAFDVAARRQYQVQRPWLGTVRRDVLPSGYALGLIPFAVYLATYAPWFASETAIDRHAVGQAVGRNSVVPLPDAVRSLWHYTAKAFHFHAGLTNSAGNYHPWESKPWTWPMSLRPVLYAIDQQDVAGCGAQSCVKAEMAVGTPAMWWLAVPVLAYAGWRMFVRRDWRYAVVLVGYCAGWLPWFADIDRQMYFFYAATMAPFLVMGISLVLGDILYHPGQGSERRTLGLIVVCCYVALVVTNFAWLYPVLTGLPISQQTWNLEIWLPSWR |  | 73% |
| E74D75: di-substitution of D74E75 with the reversed doublet (protein, UniProt P9WN05 1-522, looked up, variant D74E E75D) Polyprenol-phosphate-mannose-- …: MTARPPESCVLAKDRPEEPVVPVVSPGPLVPVADFGPLDRLRGWIVTGLITLLATVTRFLNLGSLTDAGTPIFEDKHYAPQAWQVLNNHGVEDNPGYGLVVHPPVGKQLIAIGEAIFGYNGFGWRFTGALLGVVLVALVVRIVRRISRSTLVGAIAGVLLICDGVSFVTARTALLDGFLTFFVVAAFGALIVDRDQVRERMHIALLAGRSAATVWGPRVGVRWWRFGAGVLLGLACATKWSGVYFVLFFGAMALAFDVAARRQYQVQRPWLGTVRRDVLPSGYALGLIPFAVYLATYAPWFASETAIDRHAVGQAVGRNSVVPLPDAVRSLWHYTAKAFHFHAGLTNSAGNYHPWESKPWTWPMSLRPVLYAIDQQDVAGCGAQSCVKAEMLVGTPAMWWLAVPVLAYAGWRMFVRRDWRYAVVLVGYCAGWLPWFADIDRQMYFFYAATMAPFLVMGISLVLGDILYHPGQGSERRTLGLIVVCCYVALVVTNFAWLYPVLTGLPISQQTWNLEIWLPSWR | failed to restore Fasc^His mannosylation |  |
| R441L (protein, UniProt P9WN05 1-522, looked up, variant R441L) Polyprenol-phosphate-mannose-- …: MTARPPESCVLAKDRPEEPVVPVVSPGPLVPVADFGPLDRLRGWIVTGLITLLATVTRFLNLGSLTDAGTPIFDEKHYAPQAWQVLNNHGVEDNPGYGLVVHPPVGKQLIAIGEAIFGYNGFGWRFTGALLGVVLVALVVRIVRRISRSTLVGAIAGVLLICDGVSFVTARTALLDGFLTFFVVAAFGALIVDRDQVRERMHIALLAGRSAATVWGPRVGVRWWRFGAGVLLGLACATKWSGVYFVLFFGAMALAFDVAARRQYQVQRPWLGTVRRDVLPSGYALGLIPFAVYLATYAPWFASETAIDRHAVGQAVGRNSVVPLPDAVRSLWHYTAKAFHFHAGLTNSAGNYHPWESKPWTWPMSLRPVLYAIDQQDVAGCGAQSCVKAEMLVGTPAMWWLAVPVLAYAGWRMFVRRDWRYAVVLVGYCAGWLPWFADIDLQMYFFYAATMAPFLVMGISLVLGDILYHPGQGSERRTLGLIVVCCYVALVVTNFAWLYPVLTGLPISQQTWNLEIWLPSWR | completely abolished FasC mannosylation |  |
| D176E (protein, UniProt P9WN05 1-522, looked up, variant D176E) Polyprenol-phosphate-mannose-- …: MTARPPESCVLAKDRPEEPVVPVVSPGPLVPVADFGPLDRLRGWIVTGLITLLATVTRFLNLGSLTDAGTPIFDEKHYAPQAWQVLNNHGVEDNPGYGLVVHPPVGKQLIAIGEAIFGYNGFGWRFTGALLGVVLVALVVRIVRRISRSTLVGAIAGVLLICDGVSFVTARTALLEGFLTFFVVAAFGALIVDRDQVRERMHIALLAGRSAATVWGPRVGVRWWRFGAGVLLGLACATKWSGVYFVLFFGAMALAFDVAARRQYQVQRPWLGTVRRDVLPSGYALGLIPFAVYLATYAPWFASETAIDRHAVGQAVGRNSVVPLPDAVRSLWHYTAKAFHFHAGLTNSAGNYHPWESKPWTWPMSLRPVLYAIDQQDVAGCGAQSCVKAEMLVGTPAMWWLAVPVLAYAGWRMFVRRDWRYAVVLVGYCAGWLPWFADIDRQMYFFYAATMAPFLVMGISLVLGDILYHPGQGSERRTLGLIVVCCYVALVVTNFAWLYPVLTGLPISQQTWNLEIWLPSWR | slightly restored mannosylation activity |  |
| D74E (protein, UniProt P9WN05 1-522, looked up, variant D74E) Polyprenol-phosphate-mannose-- …: MTARPPESCVLAKDRPEEPVVPVVSPGPLVPVADFGPLDRLRGWIVTGLITLLATVTRFLNLGSLTDAGTPIFEEKHYAPQAWQVLNNHGVEDNPGYGLVVHPPVGKQLIAIGEAIFGYNGFGWRFTGALLGVVLVALVVRIVRRISRSTLVGAIAGVLLICDGVSFVTARTALLDGFLTFFVVAAFGALIVDRDQVRERMHIALLAGRSAATVWGPRVGVRWWRFGAGVLLGLACATKWSGVYFVLFFGAMALAFDVAARRQYQVQRPWLGTVRRDVLPSGYALGLIPFAVYLATYAPWFASETAIDRHAVGQAVGRNSVVPLPDAVRSLWHYTAKAFHFHAGLTNSAGNYHPWESKPWTWPMSLRPVLYAIDQQDVAGCGAQSCVKAEMLVGTPAMWWLAVPVLAYAGWRMFVRRDWRYAVVLVGYCAGWLPWFADIDRQMYFFYAATMAPFLVMGISLVLGDILYHPGQGSERRTLGLIVVCCYVALVVTNFAWLYPVLTGLPISQQTWNLEIWLPSWR | only marginally restored enzyme activity |  |
| phenylalanine was substituted for Y444: MtPMT with phenylalanine substituted for Y444 (protein, UniProt P9WN05 1-522, looked up, variant Y444F) Polyprenol-phosphate-mannose-- …: MTARPPESCVLAKDRPEEPVVPVVSPGPLVPVADFGPLDRLRGWIVTGLITLLATVTRFLNLGSLTDAGTPIFDEKHYAPQAWQVLNNHGVEDNPGYGLVVHPPVGKQLIAIGEAIFGYNGFGWRFTGALLGVVLVALVVRIVRRISRSTLVGAIAGVLLICDGVSFVTARTALLDGFLTFFVVAAFGALIVDRDQVRERMHIALLAGRSAATVWGPRVGVRWWRFGAGVLLGLACATKWSGVYFVLFFGAMALAFDVAARRQYQVQRPWLGTVRRDVLPSGYALGLIPFAVYLATYAPWFASETAIDRHAVGQAVGRNSVVPLPDAVRSLWHYTAKAFHFHAGLTNSAGNYHPWESKPWTWPMSLRPVLYAIDQQDVAGCGAQSCVKAEMLVGTPAMWWLAVPVLAYAGWRMFVRRDWRYAVVLVGYCAGWLPWFADIDRQMFFFYAATMAPFLVMGISLVLGDILYHPGQGSERRTLGLIVVCCYVALVVTNFAWLYPVLTGLPISQQTWNLEIWLPSWR | almost half of the FasC mannosylation level remained |  |
| S365T (protein, UniProt P9WN05 1-522, looked up, variant S365T) Polyprenol-phosphate-mannose-- …: MTARPPESCVLAKDRPEEPVVPVVSPGPLVPVADFGPLDRLRGWIVTGLITLLATVTRFLNLGSLTDAGTPIFDEKHYAPQAWQVLNNHGVEDNPGYGLVVHPPVGKQLIAIGEAIFGYNGFGWRFTGALLGVVLVALVVRIVRRISRSTLVGAIAGVLLICDGVSFVTARTALLDGFLTFFVVAAFGALIVDRDQVRERMHIALLAGRSAATVWGPRVGVRWWRFGAGVLLGLACATKWSGVYFVLFFGAMALAFDVAARRQYQVQRPWLGTVRRDVLPSGYALGLIPFAVYLATYAPWFASETAIDRHAVGQAVGRNSVVPLPDAVRSLWHYTAKAFHFHAGLTNSAGNYHPWESKPWTWPMTLRPVLYAIDQQDVAGCGAQSCVKAEMLVGTPAMWWLAVPVLAYAGWRMFVRRDWRYAVVLVGYCAGWLPWFADIDRQMYFFYAATMAPFLVMGISLVLGDILYHPGQGSERRTLGLIVVCCYVALVVTNFAWLYPVLTGLPISQQTWNLEIWLPSWR | only partially impacted FasC mannosylation |  |
| R441A (protein, UniProt P9WN05 1-522, looked up, variant R441A) Polyprenol-phosphate-mannose-- …: MTARPPESCVLAKDRPEEPVVPVVSPGPLVPVADFGPLDRLRGWIVTGLITLLATVTRFLNLGSLTDAGTPIFDEKHYAPQAWQVLNNHGVEDNPGYGLVVHPPVGKQLIAIGEAIFGYNGFGWRFTGALLGVVLVALVVRIVRRISRSTLVGAIAGVLLICDGVSFVTARTALLDGFLTFFVVAAFGALIVDRDQVRERMHIALLAGRSAATVWGPRVGVRWWRFGAGVLLGLACATKWSGVYFVLFFGAMALAFDVAARRQYQVQRPWLGTVRRDVLPSGYALGLIPFAVYLATYAPWFASETAIDRHAVGQAVGRNSVVPLPDAVRSLWHYTAKAFHFHAGLTNSAGNYHPWESKPWTWPMSLRPVLYAIDQQDVAGCGAQSCVKAEMLVGTPAMWWLAVPVLAYAGWRMFVRRDWRYAVVLVGYCAGWLPWFADIDAQMYFFYAATMAPFLVMGISLVLGDILYHPGQGSERRTLGLIVVCCYVALVVTNFAWLYPVLTGLPISQQTWNLEIWLPSWR | completely abolished FasC mannosylation |  |
| Y371A-L392A (protein, UniProt P9WN05 1-522, looked up, variant Y371A L392A) Polyprenol-phosphate-mannose-- …: MTARPPESCVLAKDRPEEPVVPVVSPGPLVPVADFGPLDRLRGWIVTGLITLLATVTRFLNLGSLTDAGTPIFDEKHYAPQAWQVLNNHGVEDNPGYGLVVHPPVGKQLIAIGEAIFGYNGFGWRFTGALLGVVLVALVVRIVRRISRSTLVGAIAGVLLICDGVSFVTARTALLDGFLTFFVVAAFGALIVDRDQVRERMHIALLAGRSAATVWGPRVGVRWWRFGAGVLLGLACATKWSGVYFVLFFGAMALAFDVAARRQYQVQRPWLGTVRRDVLPSGYALGLIPFAVYLATYAPWFASETAIDRHAVGQAVGRNSVVPLPDAVRSLWHYTAKAFHFHAGLTNSAGNYHPWESKPWTWPMSLRPVLAAIDQQDVAGCGAQSCVKAEMAVGTPAMWWLAVPVLAYAGWRMFVRRDWRYAVVLVGYCAGWLPWFADIDRQMYFFYAATMAPFLVMGISLVLGDILYHPGQGSERRTLGLIVVCCYVALVVTNFAWLYPVLTGLPISQQTWNLEIWLPSWR | complete abolition of the mannosyl transferase activity |  |
